The record followed here is patent publication US20100021448.

The target in this data set is T1, I-CreI variant RRN (R44, R68, N70, N75).
T1 chain: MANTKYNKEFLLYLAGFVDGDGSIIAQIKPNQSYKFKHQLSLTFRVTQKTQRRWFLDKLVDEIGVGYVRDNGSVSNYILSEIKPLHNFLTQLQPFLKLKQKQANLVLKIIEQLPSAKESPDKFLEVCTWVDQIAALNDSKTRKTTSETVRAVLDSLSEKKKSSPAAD

B1: I-CreI variant DRN (D44, R68, N70, N75) (protein)
chain: MANTKYNKEFLLYLAGFVDGDGSIIAQIKPNQSYKFKHQLSLTFDVTQKTQRRWFLDKLVDEIGVGYVRDNGSVSNYILSEIKPLHNFLTQLQPFLKLKQKQANLVLKIIEQLPSAKESPDKFLEVCTWVDQIAALNDSKTRKTTSETVRAVLDSLSEKKKSSPAAD
Take B1: the “cleavage of chimeric DNA targets on co-expression” value is reported as “no cleavage of chimeric targets could be detected by co-expression of the same weak mutants”.
